According to PMC3381998:

Columns and labels:
SEPT6 = SEPT6 (UniProt Q14141); experiment: co-IP
SEPT7 = SEPT7 (UniProt Q16181); experiment: co-IP
SEPT7, sequence (Q16181 whole entry): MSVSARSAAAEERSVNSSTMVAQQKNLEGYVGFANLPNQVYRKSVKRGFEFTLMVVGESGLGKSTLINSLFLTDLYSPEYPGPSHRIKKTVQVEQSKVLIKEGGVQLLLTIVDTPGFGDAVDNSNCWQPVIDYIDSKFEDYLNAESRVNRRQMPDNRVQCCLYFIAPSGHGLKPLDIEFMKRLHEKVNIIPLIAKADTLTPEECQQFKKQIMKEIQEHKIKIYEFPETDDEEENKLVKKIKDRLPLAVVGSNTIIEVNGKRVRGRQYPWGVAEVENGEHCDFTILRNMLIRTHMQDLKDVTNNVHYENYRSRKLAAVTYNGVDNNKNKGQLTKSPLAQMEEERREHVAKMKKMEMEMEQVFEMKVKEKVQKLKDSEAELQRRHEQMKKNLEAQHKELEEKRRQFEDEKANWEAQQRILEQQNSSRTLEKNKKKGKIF

SEPT6, sequence (Q14141 whole entry): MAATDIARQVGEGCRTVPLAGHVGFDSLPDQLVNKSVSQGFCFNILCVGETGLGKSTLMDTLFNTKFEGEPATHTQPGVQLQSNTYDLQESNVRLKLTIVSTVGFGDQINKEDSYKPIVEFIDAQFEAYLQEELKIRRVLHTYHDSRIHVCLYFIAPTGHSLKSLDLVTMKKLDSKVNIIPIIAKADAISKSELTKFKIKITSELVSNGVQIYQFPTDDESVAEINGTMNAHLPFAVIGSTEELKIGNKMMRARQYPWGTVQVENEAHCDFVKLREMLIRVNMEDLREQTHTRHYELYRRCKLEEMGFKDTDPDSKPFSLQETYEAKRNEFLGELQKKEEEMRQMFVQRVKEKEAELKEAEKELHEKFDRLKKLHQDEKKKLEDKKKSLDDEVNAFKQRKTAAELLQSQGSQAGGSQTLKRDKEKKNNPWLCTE

Row | percent of SEPT7 depleted on immunodepletion of SEPT6 (SEPT6) [%] | percent of SEPT7 that interacts with SEPT6 (SEPT6) [%] | percent of total SEPT6 precipitated with SEPT7 (SEPT7) [%] | Substance
1 | 30 | 43 | – | SEPT7 (from UniProt Q16181 1-437) (natural protein)
2 | – | – | 24 | SEPT6 (from UniProt Q14141 1-434) (natural protein)
